Here are results for three molecules from patent publication US9127249B2, “Method for preparing metabolites of atorvastatin using bacterial cytochrome P450 and composition therefor” (INDUSTRY FOUNDATION OF CHONNAM NATIONAL UNIVERSITY, priority 2011, dated 2015).

Data set [1] can be described thus: Turnover number of atorvastatin oxidation by CYP102A1 enzymes (HPLC). Type of data set: biochemical. Particulars: 80 μM atorvastatin, FIG. 13; for turnover number in oxidation of atorvastatin: 50 pmol enzyme, NADPH-generating system, 37° C., 30 minutes, production of 4-hydroxylated metabolite by HPLC. The protocol:
It was examined whether the wild-type CYP102A1, the CYP102A1 mutants, and the chimeras derived from the CYP1.02A1 mutants may oxidize atorvastatin. Typical steady-state reactions was performed by adding 50 pmol CYP102A1 and 80 μM substrate to 0.25 ml of 100 mM potassium phosphate buffer solution (pH 7.4). In order to initiate reactions, the NADPH-generating system was added thereto (final concentrations: 10 mM glucose 6-phosphate, 0.5 mM NADP^+, and 1 IU […] per ml). A stock solution of atorvastatin (20 mM) was prepared in DMSO and diluted into the enzyme reaction solution to have a final organic solvent concentration of <1% (v/v).
In order to measure human CYP3A4 activity, 50 pmol P450, 100 pmol NADPH-P450 reductase (CPR), 100 pmol cytochrome b5, and 45 μM L-α-dilauroyl-sn-glycero-3-phosphocholine (DLPC) were used instead of 50 pmol CYP102A1. After the reaction solution was reacted for 30 minutes at 37° C., the reaction was terminated with 2-fold of ice-cold dichloromethane.
After centrifugation of the reaction mixture, a supernatant was removed and a solvent was evaporated under nitrogen gas and analyzed using HPLC. A sample (30 ul) was injected into Gemini C18 column (4.6 mm×150 mm, 5 um. Phenomenex. Torrance, Calif.). As a mobile phase A, water containing 0.1% formic acid/acetonitrile (80/20, v/v) was used, and as a mobile phase B, acetonitrile/0.1% formic acid (90/10, v/v) was used. The mobile phase A/B (70/30, v/v) was flowed at a rate of 1 ml·min^−1 using a gradient pump (LC-20AD, Shimadzu, Kyoto, Japan). Elution solutions were detected by UV at 260 nm.
In order to examine whether or not CYP102A1 (P450 BM3) may oxidize atorvastatin, the abilities of the wild-type CYP102A1 (P450 BM3), the mutants thereof, and the chimeras derived from the CYP102A1 mutants to oxidize atorvastatin were measured at a fixed substrate concentration (80 μM).
In order to recognize production rate of atorvastatin oxides by wild-type CYP102A1, CYP102A1 mutants, and chimeras derived from the CYP102A1 mutants, the turnover number was determined in the reaction using 80 μM statin.
The term “turnover number” means the number of substrate molecules that a molecule of an enzyme may convert into products per minute and indicates conversion frequency.
The production rate of 4-hydroxylated metabolite was determined by HPLC as described above.

Data set [2] is described as follows: Total turnover number (TTN) of atorvastatin oxidation. Type of data set: biochemical. Conditions: reacted for 4 hours. The method, then: In order to recognize production rate of atorvastatin metabolites by the CYP102A1 mutant (#16 in Table 2) and the chimeras (#16A1V2 and #17A1V2) derived from the CYP102A1 mutants, total turnover numbers (TTNs; mol product/mol catalyst) were determined in reactions using total 240 μM atorvastatin.
The term “total turnover number (TTN)” means the number of substrate molecules converted into metabolites by enzymes for the total reaction time.
The total turnover numbers (TTNs) were determined by comparing the results under three conditions. First, the reaction was performed by adding a NADPH-generating system at 37° C. for 1 hour in the presence of 80 μM substrate. In addition, second, after reaction was performed for 1 hour in the presence of 80 μM substrate, 80 μM substrate was additionally added to the reaction mixture, and the reaction was further performed for 1 hour. Finally, after reaction was performed for 1 hour in the presence of 80 μM substrate, 80 μM substrate was additionally added to the reaction mixture, and the reaction was further performed for 1 hour. Then, 80 μM substrate was additionally added to the reaction mixture, and the reaction was further performed for 2 hours.
The production rate of the atorvastatin metabolites was determined using HPLC. […]

Residue numbers refer to the chain shown, from its start. Names may count otherwise. “Also recorded” adds a separate entry of the source.

B1: Mutant #16: CYP102A1 mutant R47L/F81I/F87V/E143G/L188Q/E267V (SEQ ID NO 18) (protein)
chain: MTIKEMPQPKTFGELKNLPLLNTDKPVQALMKIADELGEIFKFEAPGLVTRYLSSQRLIKEACDESRFDKNLSQALKFVRDIAGDGLVTSWTHEKNWKKAHNILLPSFSQQAMKGYHAMMVDIAVQLVQKWERLNADEHIEVPGDMTRLTLDTIGLCGFNYRFNSFYRDQPHPFITSMVRALDEAMNKQQRANPDDPAYDENKRQFQEDIKVMNDLVDKIIADRKASGEQSDDLLTHMLNGKDPETGEPLDDENIRYQIITFLIAGHVTTSGLLSFALYFLVKNPHVLQKAAEEAARVLVDPVPSYKQVKQLKYVGMVLNEALRLWPTAPAFSLYAKEDTVLGGEYPLEKGDELMVLIPQLHRDKTIWGDDVEEFRPERFENPSAIPQHAFKPFGNGQRACIGQQFALHEATLVLGMMLKHFDFEDHTNYELDIKETLTLKPEGFVVKAKSKKIPLGGIPSPSTEQSAKKVRKKAENAHNTPLLVLYGSNMGTAEGTARDLADIAMSKGFAPQVATLDSHAGNLPREGAVLIVTASYNGHPPDNAKQFVDWLDQASADEVKGVRYSVFGCGDKNWATTYQKVPAFIDETLAAKGAENIADRGEADASDDFEGTYEEWREHMWSDVAAYFNLDIENSEDNKSTLSLQFVDSAADMPLAKMHGAFSTNVVASKELQQPGSARSTRHLEIELPKEASYQEGDHLGVIPRNYEGIVNRVTARFGLDASQQIRLEAEEEKLAHLPLAKTVSVEELLQYVELQDPVTRTQLRAMAAKTVCPPHKVELEALLEKQAYKEQVLAKRLTMLELLEKYPACEMKFSEFIALLPSIRPRYYSISSSPRVDEKQASITVSVVSGEAWSGYGEYKGIASNYLAELQEGDTITCFISTPQSEFTLPKDPETPLIMVGPGTGVAPFRGFVQARKQLKEQGQSLGEAHLYFGCRSPHEDYLYQEELENAQSEGIITLHTAFSRMPNQPKTYVQHVMEQDGKKLIELLDQGAHFYICGDGSQMAPAVEATLMKSYADVHQVSEADARLWLQQLEEKGRYAKDVWAG
modifications: CYP102A1 mutant#16
As for B1, in data set [1], the “turnover number in oxidation of atorvastatin” value (shortened to “turnover number in oxidation”) was “high turnover number”.

B2: Mutant #17: CYP102A1 mutant R47L/E64G/F81I/F87V/E143G/L188Q/E267V (SEQ ID NO 20) (protein)
chain: MTIKEMPQPKTFGELKNLPLLNTDKPVQALMKIADELGEIFKFEAPGLVTRYLSSQRLIKEACDGSRFDKNLSQALKFVRDIAGDGLVTSWTHEKNWKKAHNILLPSFSQQAMKGYHAMMVDIAVQLVQKWERLNADEHIEVPGDMTRLTLDTIGLCGFNYRFNSFYRDQPHPFITSMVRALDEAMNKQQRANPDDPAYDENKRQFQEDIKVMNDLVDKIIADRKASGEQSDDLLTHMLNGKDPETGEPLDDENIRYQIITFLIAGHVTTSGLLSFALYFLVKNPHVLQKAAEEAARVLVDPVPSYKQVKQLKYVGMVLNEALRLWPTAPAFSLYAKEDTVLGGEYPLEKGDELMVLIPQLHRDKTIWGDDVEEFRPERFENPSAIPQHAFKPFGNGQRACIGQQFALHEATLVLGMMLKHFDFEDHTNYELDIKETLTLKPEGFVVKAKSKKIPLGGIPSPSTEQSAKKVRKKVENAHNTPLLVLYGSNMGTAEGTARDLADIAMSKGFAPQVATLDSHAGNLPREGAVLIVTASYNGHPPDNAKQFVDWLDQASADDVKGVRYSVFGCGDKNWATTYQKVPAFIDETLAAKGAENIADRGEADASDDFEGTYEEWREHMWSDVAAYFNLDIENSEDNKSTLSLQFVDSAADMPLAKMHGAFSANVVASKELQQLGSERSTRHLEIALPKEASYQEGDHLGVIPRNYEGIVNRVTARFGLDASQQIRLEAEEEKLAHLPLGKTVSVEELLQYVELQDPVTRTQLRAMAAKTVCPPHKVELEALLEKQAYKEQVLAKRLTMLELLEKYPACEMEFSEFIALLPSISPRYYSISSSPHVDEKQASITVSVVSGEAWSGYGEYKGIASNYLANLQEGDTITCFVSTPQSGFTLPKDSETPLIMVGPGTGVAPFRGFVQARKQLKEQGQSLGEAHLYFGCRSPHEDYLYQEELENAQNEGIITLHTAFSRVPNQPKTYVQHVMERDGKKLIELLDQGAHFYICGDGSQMAPDVEATLMKSYADVYEVSEADARLWLQQLEEKGRYAKDVWAG
modifications: CYP102A1 mutant #17
Regarding B2, in data set [1], the “turnover number in oxidation” value was “high turnover number”.

B3: #16A1V2: chimera: heme domain of mutant #16 fused to V2 reductase domain of Table 4 (SEQ ID NO 22) (protein)
chain: B2 chain with L48R, G65E, I82F, V88F, G144E, Q189L, V268E
modifications: chimera #16A1V2
On to B3, for which the “activity compared with human CYP3A4 (total turnover number)” value in data set [2] is given as “activity higher than that of the human CYP3A4”. In data set [1], the “turnover number in oxidation” value is reported as “high turnover number; also recorded: most excellent turnover number” and the “activity compared with human CYP3A4 (turnover number)” value is “same activity as that of the human CYP3A4”.
